Experimental data from paper PMC2715101, “Dimerization of Translationally Controlled Tumor Protein Is Essential For Its Cytokine-Like Activity” (PLoS ONE, 2009).

Key:
[1] = target: Fc-fused human recombinant TCTP (Fc-HrTCTP) (human | rabbit) (UniProt P13693); experiment: native gel or EMSA; Fc fusion proteins on a native gel, apparent molecular weights by a molecular size marker
[2] = target: rabbit Fc protein (Fc) (rabbit); experiment: as above
Del-N35TCTP-C172S (rat) [3] = target: Del-N35TCTP-C172S (rat) (UniProt P63029)
Del-N35TCTP-C172S (rat) [4] = target: Del-N35TCTP-C172S (rat) (UniProt P63029); experiment: SEC; Superdex 200 HR 10/30, 50 mM sodium phosphate pH 7.0, 150 mM NaCl, calibrated with molecular size markers
[5] = target: TCTP in bronchoalveolar lavage fluid (BALF) of mice with airway inflammation (mouse (endogenous in BALB/c BALF)) (UniProt P63028); experiment: non-reducing SDS-PAGE and Western blotting; BALF from OVA-OVA and N11TCTP-N11TCTP mice
[6] = target: Del-N35TCTP (residues 35-172) (rat) (UniProt P63029); experiment: non-reducing SDS-PAGE; proteins completely reduced with 20 mM DTT, transferred to 50 mM Tris pH 7.5, 1 mM EDTA, then oxidized with 0.1, 1 or 10 mM H2O2
[7] = target: Del-N35TCTP (residues 35-172) (rat) (UniProt P63029); experiment: non-reducing SDS-PAGE; purified proteins boiled with or without β-ME, 15% gel, coomassie brilliant blue; dimer by intermolecular disulfide bond
[8] = target: Del-N35TCTP (residues 35-172) (rat) (UniProt P63029); experiment: SEC; Superdex 200 HR 10/30, 50 mM sodium phosphate pH 7.0, 150 mM NaCl, calibrated with molecular size markers
[9] = target: Del-N35TCTP (residues 35-172) (rat) (UniProt P63029); experiment: cross-linking; sulfhydryl crosslinkers BMOE (five-fold molar excess, 2 h) or BM(PEO)3 (five-fold molar excess, 1 h), room temperature, proteins first reduced with 20 mM DTT; each protein alone and their 1/2:1/2 molar mixture; reducing SDS-PAGE
[10] = target: Del-N35TCTP (residues 35-172) (rat) (UniProt P63029)
[11] = target: the molecule itself; experiment: cell-based or functional assay
[12] = target: the molecule itself; experiment: non-reducing SDS-PAGE; purified proteins boiled with or without β-ME, 15% gel, coomassie brilliant blue; dimer by intermolecular disulfide bond

For “Fc-fused human recombinant TCTP (Fc-HrTCTP) (from UniProt P13693 1-172) (Fc fusion)”, the stoichiometry N [1] was 2.

“rabbit Fc protein (Fc) (domain or fragment)” showed a stoichiometry N [2] of 2.

“Del-N35TCTP-C172S (from UniProt P63029 35-172) (domain or fragment)” was tested, and the IL-8 secretion from BEAS-2B cells, 5 µm/ml protein, 24 h, percent of wild-type (Del-N35TCTP) (% of wild-type) (Del-N35TCTP-C172S (rat) [3]) was 36 and the stoichiometry N (Del-N35TCTP-C172S (rat) [4]) was 2.

“TCTP in bronchoalveolar lavage fluid (BALF) of mice with airway inflammation (from UniProt P63028 1-172) (natural protein)” gave a stoichiometry N [5] of 2.

In the case of “Del-N35TCTP (residues 35-172) (from UniProt P63029 35-172) (domain or fragment)”, the stoichiometry N [6] is reported as 2, the stoichiometry N [7] is reported as 2 and the stoichiometry N [8] is reported as 2. For the same molecule, the stoichiometry N [9] was 2, the IL-8 secretion from BEAS-2B cells by BM(PEO)3-treated DTT-pretreated Del-N35TCTP, percent of DTT-untreated Del-N35TCTP (% of DTT-untreated Del-N35TCTP) [10] was 122 and the IL-8 secretion from BEAS-2B cells by BMOE-treated DTT-pretreated Del-N35TCTP, percent of DTT-untreated Del-N35TCTP (% of DTT-untreated Del-N35TCTP) [10] was 108. The IL-8 secretion from BEAS-2B cells by DTT-treated Del-N35TCTP, percent of DTT-untreated Del-N35TCTP (% of DTT-untreated Del-N35TCTP) [10] was 71.7.

B1: Del-N11TCTP-C172S (domain or fragment, rat, UniProt P63029 11-172, looked up)
chain: DELFSDIYKIREIADGLCLEVEGKMVSRTEGAIDDSLIGGNASAEGPEGEGTESTVVTGVDIVMNHHLQETSFTKEAYKKYIKDYMKSLKGKLEEQKPERVKPFMTGAAEQIKHILANFNNYQFFIGENMNPDGMVALLDYREDGVTPFMIFFKDGLEMEKS
With B1 the “IL-8 secretion from BEAS-2B cells, 5 µm/ml protein, 24 h, percent of wild-type (Del-N11TCTP)” value [11] was 52 % of wild-type and the “stoichiometry N” value [12] was 2.

B2: Del-N11TCTP-C28S (domain or fragment, rat, UniProt P63029 11-172, looked up)
chain: DELFSDIYKIREIADGLSLEVEGKMVSRTEGAIDDSLIGGNASAEGPEGEGTESTVVTGVDIVMNHHLQETSFTKEAYKKYIKDYMKSLKGKLEEQKPERVKPFMTGAAEQIKHILANFNNYQFFIGENMNPDGMVALLDYREDGVTPFMIFFKDGLEMEKC
notes: No stop codon in the reverse primer
With B2 the “stoichiometry N” value [12] was 2.

B3: Del-N11TCTP (residues 11-172) (domain or fragment, rat, UniProt P63029 11-172, looked up)
chain: DELFSDIYKIREIADGLCLEVEGKMVSRTEGAIDDSLIGGNASAEGPEGEGTESTVVTGVDIVMNHHLQETSFTKEAYKKYIKDYMKSLKGKLEEQKPERVKPFMTGAAEQIKHILANFNNYQFFIGENMNPDGMVALLDYREDGVTPFMIFFKDGLEMEKC
notes: No stop codon in the reverse primer; also called Del-N11HRF
With B3 the “stoichiometry N” value [12] was 2.
